Reference: patent US20070232789A1 (UNIVERSITY OF MARYLAND BALTIMORE, published 2007)

Legend:
[1] = target: T1, low-density lipoprotein receptor-related protein (LRP), purified (human, UniProt Q07954 20-4544); assay: homologous displacement of ^125I-A2 (5 nM) by unlabeled A2 on LRP-coated wells, LIGAND fit
T1 construct: mature; also called low density lipoprotein receptor-related protein/α2-macroglobulin receptor; LRP receptor

[2] = target: LRP on mouse embryonic fibroblasts (MEF cells) (mouse, UniProt Q91ZX7 20-4545); assay: cell-based or functional assay
[3] = target: T1, low-density lipoprotein …; assay: heterologous displacement of ^125I-fVIII (1 nM) from immobilised LRP; isolated A2 domain as unlabeled competitor
Procedure: (§1) Solid-phase binding assays. […] Microtiter wells were coated with purified LRP or BSA (3 μg/ml) in 50 mM Tris, 0.15 M NaCl, pH 8.0, for 16 h and then blocked with 3% BSA in TBS. […] The radioactivity bound to the wells was counted using a γ-counter (Pharmacia). Affinity constants were derived from homologous and heterologous displacement data using the computer program LIGAND (Munson, P T and Rodbard, D. Anal. Biochem. 107:220-239 (1980)).

[4] = target: T1, low-density lipoprotein …; assay: heterologous displacement of ^125I-fVIII (1 nM) from immobilised LRP; HCh as unlabeled competitor
Procedure: as §1

T1 sequence (Q07954 20-4544, form in doubt): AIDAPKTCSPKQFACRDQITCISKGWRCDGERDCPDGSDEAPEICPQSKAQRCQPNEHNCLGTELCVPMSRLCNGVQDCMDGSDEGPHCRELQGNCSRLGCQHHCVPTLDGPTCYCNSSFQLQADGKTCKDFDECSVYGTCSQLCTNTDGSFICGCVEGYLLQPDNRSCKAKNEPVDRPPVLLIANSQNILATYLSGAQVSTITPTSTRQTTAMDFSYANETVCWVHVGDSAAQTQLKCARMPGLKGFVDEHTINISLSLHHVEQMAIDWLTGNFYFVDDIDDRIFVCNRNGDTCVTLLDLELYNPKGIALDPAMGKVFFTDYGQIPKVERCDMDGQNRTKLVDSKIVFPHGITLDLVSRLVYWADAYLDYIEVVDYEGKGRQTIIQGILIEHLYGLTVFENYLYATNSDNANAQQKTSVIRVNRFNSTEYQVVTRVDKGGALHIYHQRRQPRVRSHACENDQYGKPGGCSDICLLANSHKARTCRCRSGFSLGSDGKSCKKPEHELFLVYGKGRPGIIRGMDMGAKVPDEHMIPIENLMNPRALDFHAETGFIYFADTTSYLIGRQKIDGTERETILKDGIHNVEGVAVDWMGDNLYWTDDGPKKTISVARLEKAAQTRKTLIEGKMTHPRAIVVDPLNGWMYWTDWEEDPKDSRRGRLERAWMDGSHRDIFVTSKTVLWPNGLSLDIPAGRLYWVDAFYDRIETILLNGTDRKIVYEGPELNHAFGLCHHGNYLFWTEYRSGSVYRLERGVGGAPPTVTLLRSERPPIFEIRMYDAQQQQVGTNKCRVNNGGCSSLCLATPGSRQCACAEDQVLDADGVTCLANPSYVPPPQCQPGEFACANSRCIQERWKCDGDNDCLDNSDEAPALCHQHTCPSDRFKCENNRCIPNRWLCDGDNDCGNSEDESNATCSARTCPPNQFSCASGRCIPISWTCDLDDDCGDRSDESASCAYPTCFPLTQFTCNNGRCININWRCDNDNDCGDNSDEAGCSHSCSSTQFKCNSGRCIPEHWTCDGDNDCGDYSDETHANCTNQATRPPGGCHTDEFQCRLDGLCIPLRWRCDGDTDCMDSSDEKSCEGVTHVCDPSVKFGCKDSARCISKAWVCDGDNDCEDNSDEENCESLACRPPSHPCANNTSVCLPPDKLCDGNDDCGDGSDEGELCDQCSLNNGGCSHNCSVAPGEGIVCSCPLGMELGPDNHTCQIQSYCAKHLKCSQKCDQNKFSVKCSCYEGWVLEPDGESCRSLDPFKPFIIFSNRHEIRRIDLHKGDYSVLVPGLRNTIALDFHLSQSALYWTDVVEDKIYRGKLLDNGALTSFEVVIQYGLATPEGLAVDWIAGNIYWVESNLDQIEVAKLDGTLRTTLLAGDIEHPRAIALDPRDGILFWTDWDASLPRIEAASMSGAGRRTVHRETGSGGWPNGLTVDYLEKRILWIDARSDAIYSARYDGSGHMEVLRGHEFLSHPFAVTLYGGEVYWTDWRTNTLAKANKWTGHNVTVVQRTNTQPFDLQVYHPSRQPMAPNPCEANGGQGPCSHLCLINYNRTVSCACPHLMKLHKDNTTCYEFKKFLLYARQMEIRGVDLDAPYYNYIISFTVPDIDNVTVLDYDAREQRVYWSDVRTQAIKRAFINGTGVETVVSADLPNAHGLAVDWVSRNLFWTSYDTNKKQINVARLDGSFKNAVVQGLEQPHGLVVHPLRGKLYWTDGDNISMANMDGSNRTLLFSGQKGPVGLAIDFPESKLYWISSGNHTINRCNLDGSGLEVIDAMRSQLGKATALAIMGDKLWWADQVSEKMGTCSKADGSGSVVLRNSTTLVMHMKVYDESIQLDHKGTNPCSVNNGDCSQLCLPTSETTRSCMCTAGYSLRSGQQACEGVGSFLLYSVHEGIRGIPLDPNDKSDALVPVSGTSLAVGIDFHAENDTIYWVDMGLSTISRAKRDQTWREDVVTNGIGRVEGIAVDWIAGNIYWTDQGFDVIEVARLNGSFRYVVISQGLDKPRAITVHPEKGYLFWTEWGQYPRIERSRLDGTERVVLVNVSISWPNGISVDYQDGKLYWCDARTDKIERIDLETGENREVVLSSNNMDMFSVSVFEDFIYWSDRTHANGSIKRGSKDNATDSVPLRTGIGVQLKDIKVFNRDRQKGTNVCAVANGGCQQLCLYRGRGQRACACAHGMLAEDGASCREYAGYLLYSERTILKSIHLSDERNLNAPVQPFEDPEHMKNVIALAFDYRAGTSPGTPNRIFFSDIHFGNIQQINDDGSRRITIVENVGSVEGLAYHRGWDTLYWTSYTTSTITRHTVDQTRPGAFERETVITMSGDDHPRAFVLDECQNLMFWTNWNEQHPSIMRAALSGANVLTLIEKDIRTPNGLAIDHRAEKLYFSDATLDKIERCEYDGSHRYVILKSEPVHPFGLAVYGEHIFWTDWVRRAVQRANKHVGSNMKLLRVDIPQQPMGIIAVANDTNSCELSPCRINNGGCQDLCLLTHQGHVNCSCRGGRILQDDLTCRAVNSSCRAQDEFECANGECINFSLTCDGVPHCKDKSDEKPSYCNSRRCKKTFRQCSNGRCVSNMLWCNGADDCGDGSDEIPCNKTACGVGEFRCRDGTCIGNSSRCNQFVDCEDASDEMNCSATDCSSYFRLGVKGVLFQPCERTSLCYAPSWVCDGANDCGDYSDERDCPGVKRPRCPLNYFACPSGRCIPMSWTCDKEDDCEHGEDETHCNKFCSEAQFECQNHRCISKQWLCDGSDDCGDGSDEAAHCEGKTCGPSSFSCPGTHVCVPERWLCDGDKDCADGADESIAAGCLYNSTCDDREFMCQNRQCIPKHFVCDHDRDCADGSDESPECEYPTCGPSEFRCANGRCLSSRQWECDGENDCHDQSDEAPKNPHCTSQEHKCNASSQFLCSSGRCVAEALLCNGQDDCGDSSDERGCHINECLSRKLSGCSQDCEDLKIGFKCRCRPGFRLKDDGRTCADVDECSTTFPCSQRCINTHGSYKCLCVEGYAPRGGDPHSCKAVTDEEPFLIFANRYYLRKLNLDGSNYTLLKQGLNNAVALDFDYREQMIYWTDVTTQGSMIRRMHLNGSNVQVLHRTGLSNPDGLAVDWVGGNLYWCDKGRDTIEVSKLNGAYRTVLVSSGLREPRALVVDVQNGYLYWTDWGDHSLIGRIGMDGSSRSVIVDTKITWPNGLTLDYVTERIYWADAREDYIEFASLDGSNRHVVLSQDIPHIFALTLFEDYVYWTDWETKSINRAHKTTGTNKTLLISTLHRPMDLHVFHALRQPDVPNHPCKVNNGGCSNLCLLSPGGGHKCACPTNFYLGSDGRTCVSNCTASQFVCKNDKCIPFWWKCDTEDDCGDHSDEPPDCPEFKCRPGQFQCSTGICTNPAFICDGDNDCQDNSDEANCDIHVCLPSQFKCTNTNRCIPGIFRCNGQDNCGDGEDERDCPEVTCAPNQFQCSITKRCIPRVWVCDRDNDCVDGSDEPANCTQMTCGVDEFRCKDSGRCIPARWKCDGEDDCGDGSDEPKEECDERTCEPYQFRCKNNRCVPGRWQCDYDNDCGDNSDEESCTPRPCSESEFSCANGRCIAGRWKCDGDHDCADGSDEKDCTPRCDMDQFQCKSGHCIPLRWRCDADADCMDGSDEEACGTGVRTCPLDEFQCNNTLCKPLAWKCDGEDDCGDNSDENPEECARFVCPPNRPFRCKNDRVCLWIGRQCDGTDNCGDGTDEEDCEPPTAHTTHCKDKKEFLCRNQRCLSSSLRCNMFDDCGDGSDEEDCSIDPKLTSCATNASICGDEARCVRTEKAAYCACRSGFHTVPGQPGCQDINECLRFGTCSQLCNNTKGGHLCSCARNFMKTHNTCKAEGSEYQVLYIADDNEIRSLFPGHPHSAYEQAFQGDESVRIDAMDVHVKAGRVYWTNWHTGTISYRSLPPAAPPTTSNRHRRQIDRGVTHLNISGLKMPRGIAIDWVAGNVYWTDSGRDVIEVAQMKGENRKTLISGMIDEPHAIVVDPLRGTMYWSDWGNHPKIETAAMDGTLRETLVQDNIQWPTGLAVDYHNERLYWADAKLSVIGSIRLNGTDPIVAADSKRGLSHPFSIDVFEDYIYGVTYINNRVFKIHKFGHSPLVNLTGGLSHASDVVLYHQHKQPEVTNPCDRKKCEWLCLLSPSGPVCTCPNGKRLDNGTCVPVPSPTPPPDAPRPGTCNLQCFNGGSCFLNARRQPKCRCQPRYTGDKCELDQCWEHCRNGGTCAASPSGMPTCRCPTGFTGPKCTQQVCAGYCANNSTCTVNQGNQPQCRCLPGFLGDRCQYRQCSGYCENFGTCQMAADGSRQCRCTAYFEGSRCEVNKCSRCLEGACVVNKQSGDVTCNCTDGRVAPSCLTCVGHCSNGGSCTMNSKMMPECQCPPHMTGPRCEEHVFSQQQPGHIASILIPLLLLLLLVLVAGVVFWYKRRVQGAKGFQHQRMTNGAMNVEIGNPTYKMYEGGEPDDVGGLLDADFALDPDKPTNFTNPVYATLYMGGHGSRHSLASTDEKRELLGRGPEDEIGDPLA

B1: A2 subunit of factor VIII, plasma-derived (from thrombin-activated fVIII) (other)
chain: SVAKKHPKTWVHYIAAEEEDWDYAPLVLAPDDRSYKSQYLNNGPQRIGRKYKKVRFMAYTDETFKTREAIQHESGILGPLLYGEVGDTLLIIFKNQASRPYNIYPHGITDVRPLYSRRLPKGVKHLKDFPILPGEIFKYKWTVTVEDGPTKSDPRCLTRYYSSFVNMERDLASGLIGPLLICYKESVDQRGNQIMSDKRNVILFSVFDENRSWYLTENIQRFLPNPAGVQLEDPEFQASNIMHSINGYVFDSLQLSVCLHEVAYWYILSIGAQTDFLSVFFSGYTFKHKMVYEDTLTLFPFSGETVFMSMENPGLWILGCHNSDFRNRGMTALLKVSSCDKNTGDYYEDSYEDISAYLLSKNNAIEPR
notes: Radio-iodinated where used as tracer; also called A2 domain; plasma-derived A2
B1 was tested, and the Kd [1] was 130 nM, the “inhibition of degradation of ^125I-fVIII/vWf complex by MEF cells by a 1000-fold excess of A2” value [2] was > 60% and the “inhibition of internalization of ^125I-fVIII/vWf complex by MEF cells by a 1000-fold excess of A2” value [2] was > 70%. It also gave a Ki [3] of 132 nM.

B2: heavy chain of factor VIII (HCh) (other)
chain: ATRRYYLGAVELSWDYMQSDLGELPVDARFPPRVPKSFPFNTSVVYKKTLFVEFTDHLFNIAKPRPPWMGLLGPTIQAEVYDTVVITLKNMASHPVSLHAVGVSYWKASEGAEYDDQTSQREKEDDKVFPGGSHTYVWQVLKENGPMASDPLCLTYSYLSHVDLVKDLNSGLIGALLVCREGSLAKEKTQTLHKFILLFAVFDEGKSWHSETKNSLMQDRDAASARAWPKMHTVNGYVNRSLPGLIGCHRKSVYWHVIGMGTTPEVHSIFLEGHTFLVRNHRQASLEISPITFLTAQTLLMDLGQFLLFCHISSHQHDGMEAYVKVDSCPEEPQLRMKNNEEAEDYDDDLTDSEMDVVRFDDDNSPSFIQIRSVAKKHPKTWVHYIAAEEEDWDYAPLVLAPDDRSYKSQYLNNGPQRIGRKYKKVRFMAYTDETFKTREAIQHESGILGPLLYGEVGDTLLIIFKNQASRPYNIYPHGITDVRPLYSRRLPKGVKHLKDFPILPGEIFKYKWTVTVEDGPTKSDPRCLTRYYSSFVNMERDLASGLIGPLLICYKESVDQRGNQIMSDKRNVILFSVFDENRSWYLTENIQRFLPNPAGVQLEDPEFQASNIMHSINGYVFDSLQLSVCLHEVAYWYILSIGAQTDFLSVFFSGYTFKHKMVYEDTLTLFPFSGETVFMSMENPGLWILGCHNSDFRNRGMTALLKVSSCDKNTGDYYEDSYEDISAYLLSKNNAIEPRSFSQNSRHRSTRQKQFNATTIPENDIEKTDPWFAHRTPMPKIQNVSSSDLLMLLRQSPTPHGLSLSDLQEAKYETFSDDPSPGAIDSNNSLSEMTHFRPQLHHSGDMVFTPESGLQLRLNEKLGTTAATELKKLDFKVSSTSNNLISTIPSDNLAAGTDNTSSLGPPSMPVHYDSQLDTTLFGKKSSPLTESGGPLSLSEENNDSKLLESGLMNSQESSWGKNVSSTESGRLFKGKRAHGPALLTKDNALFKVSISLLKTNKTSNNSATNRKTHIDGPSLLIENSPSVWQNILESDTEFKKVTPLIHDRMLMDKNATALRLNHMSNKTTSSKNMEMVQQKKEGPIPPDAQNPDMSFFKMLFLPESARWIQRTHGKNSLNSGQGPSPKQLVSLGPEKSVEGQNFLSEKNKVVVGKGEFTKDVGLKEMVFPSSRNLFLTNLDNLHENNTHNQEKKIQEEIEKKETLIQENVVLPQIHTVTGTKNFMKNLFLLSTRQNVEGSYDGAYAPVLQDFRSLNDSTNRTKKHTAHFSKKGEEENLEGLGNQTKQIVEKYACTTRISPNTSQQNFVTQRSKRALKQFRLPLEETELEKRIIVDDTSTQWSKNMKHLTPSTLTQIDYNEKEKGAITQSPLSDCLTRSHSIPQANRSPLPIAKVSSFPSIRPIYLTRVLFQDNSSHLPAASYRKKDSGVQESSHFLQGAKKNNLSLAILTLEMTGDQREVGSLGTSATNSVTYKKVENTVLPKPDLPKTSGKVELLPKVHIYQKDLFPTETSNGSPGHLDLVEGSLLQGTEGAIKWNEANRPGKVPFLRVATESSAKTPSKLLDPLAWDNHYGTQIPKEEWKSQEKSPEKTAFKKKDTILSLNACESNHAIAAINEGQNKPEIEVTWAKQGRTERLCSQNPPVLKRHQR
notes: Prepared from plasma-derived fVIII
A Ki [4] of 120 nM was found for B2 in this work.
